Experimental data reported in patent US20200317768A1 (published 2020).

Key:
[1] = molecular target: T1, human FcγRIIb constitutively expressed on MDCK cells (human, UniProt P31994 43-310); experiment: cell-based or functional assay
T1 sequence (looked up): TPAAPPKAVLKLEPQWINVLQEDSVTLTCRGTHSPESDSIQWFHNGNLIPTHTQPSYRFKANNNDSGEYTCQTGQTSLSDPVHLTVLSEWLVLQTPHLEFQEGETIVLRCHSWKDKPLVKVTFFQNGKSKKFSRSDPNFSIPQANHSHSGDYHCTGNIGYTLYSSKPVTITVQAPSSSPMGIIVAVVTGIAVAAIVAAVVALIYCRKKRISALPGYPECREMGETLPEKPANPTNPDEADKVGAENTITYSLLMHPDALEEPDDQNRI

[2] = molecular target: T2, soluble mouse FcγRII, His-tagged (mouse, UniProt P08101 30-210, limits assumed); experiment: SPR, mouse FcgRII-His captured, antigen-antibody complex injected, pH7.4, 25C
T2 construct: Captured on the chip by an anti-His antibody
T2 sequence (looked up): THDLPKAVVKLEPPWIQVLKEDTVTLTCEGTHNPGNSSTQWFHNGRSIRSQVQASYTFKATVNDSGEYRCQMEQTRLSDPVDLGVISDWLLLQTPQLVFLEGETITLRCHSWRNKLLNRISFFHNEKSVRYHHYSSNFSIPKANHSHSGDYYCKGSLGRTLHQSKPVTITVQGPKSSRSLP

B1: M103205H795-P1546m/M103202L889-SK1 (antibody, human IgG1, kappa)
heavy: QVTLKESGPVLVKPTETLTLTCTVSGIDLSHDDISWVRQAPGKGLEWVGIISYAGSTYYASWAKGRLTISKDTSKNQVVLTMTNMDPVDTATYYCARGVPAYSHGGDLWGQGTLVTVSSASTKGPSVFPLAPSSKSTSGGTAALGCLVKDYFPEPVTVSWNSGALTSGVHTFPAVLQSSGLYSLSSVVTVPSSSLGTQTYICNVNHKPSNTKVDKKVEPKSCDKTHTCPPCPAPELLGGPSVFLFPPKPKDTLMISRTPEVTCVVVDVSHEDPEVKFNWYVDGVEVHNAKTKPREEQYNSTYRVVSVLTVLHRDWLNGKEYKCKVSNKALPAPIEKTISKAKGQPREPQVYTLPPSREEMTKNQVSLTCLVKGFYPSDIAVEWESNGQPENNYKTTPPVLDSDRSFFLYSKLTVKKSRWQQGNVFSCSVMHEALHNHYTQKSLSLSP
light: DIVMTQSPATLSLSPGERATLSCTSSQSVYHANWLSWFQQKPGQPPKLLIYWASTLAYGVPSRFSGSGSGTDFTLTISSLQPEDAATYYCAGGYGGGRYAFGQGTKVEIKRTVAAPSVFIFPPSDEQLKSGTASVVCLLNNFYPREAKVQWKVDNALQSGNSQESVTEQDSKDSTYSLSSTLTLSKADYEKHKVYACEVTHQGLSSPVTKSFNRGEC
**Q.** What does the source list for B1?
**A.** celluar uptake [1]: 5.1 relative to SG1 (=1.00); biacore IC binding [2]: 1.41 relative to SG1 (=1.00)

B2: M103205H795-P1547m/M103202L889-SK1 (antibody, human IgG1, kappa)
heavy: QVTLKESGPVLVKPTETLTLTCTVSGIDLSHDDISWVRQAPGKGLEWVGIISYAGSTYYASWAKGRLTISKDTSKNQVVLTMTNMDPVDTATYYCARGVPAYSHGGDLWGQGTLVTVSSASTKGPSVFPLAPSSKSTSGGTAALGCLVKDYFPEPVTVSWNSGALTSGVHTFPAVLQSSGLYSLSSVVTVPSSSLGTQTYICNVNHKPSNTKVDKKVEPKSCDKTHTCPPCPAPELLGGPSVFLFPPKPKDTLMISRTPEVTCVVVDVSHEDPEVKFNWYVDGVEVHNAKTKPREEQYNSTYRVVSVLTVLHRDWLNGKEYKCKVSNKALPAPIEKTISKAKGQPREPQVYTLPPSREEMTKNQVSLTCLVKGFYPSDIAVEWESNGQPENNYKTTPPVLDSDKSFFLYSKLTVKKSRWQQGNVFSCSVMHEALHNHYTQKSLSLSP
light: DIVMTQSPATLSLSPGERATLSCTSSQSVYHANWLSWFQQKPGQPPKLLIYWASTLAYGVPSRFSGSGSGTDFTLTISSLQPEDAATYYCAGGYGGGRYAFGQGTKVEIKRTVAAPSVFIFPPSDEQLKSGTASVVCLLNNFYPREAKVQWKVDNALQSGNSQESVTEQDSKDSTYSLSSTLTLSKADYEKHKVYACEVTHQGLSSPVTKSFNRGEC
**Q.** What does the source list for B2?
**A.** celluar uptake [1]: 4.85 relative to SG1 (=1.00); biacore IC binding [2]: 1.33 relative to SG1 (=1.00)

B3: M103205H795-P1548m/M103202L889-SK1 (antibody, human IgG1, kappa)
heavy: QVTLKESGPVLVKPTETLTLTCTVSGIDLSHDDISWVRQAPGKGLEWVGIISYAGSTYYASWAKGRLTISKDTSKNQVVLTMTNMDPVDTATYYCARGVPAYSHGGDLWGQGTLVTVSSASTKGPSVFPLAPSSKSTSGGTAALGCLVKDYFPEPVTVSWNSGALTSGVHTFPAVLQSSGLYSLSSVVTVPSSSLGTQTYICNVNHKPSNTKVDKKVEPKSCDKTHTCPPCPAPELLGGPSVFLFPPKPKDTLMISRTPEVTCVVVDVSHEDPEVKFNWYVDGVEVHNAKTKPREEQYNSTYRVVSVLTVLHRDWLNGKEYKCKVSNKALPAPIEKTISKAKGQPREPQVYTLPPSREEMTKNQVSLTCLVKGFYPSDIAVEWESNRQPENNYKTTPPVLDSRGSFFLYSKLTVDKSRWQQGNVFSCSVMHEALHNHYTQKSLSLSP
light: DIVMTQSPATLSLSPGERATLSCTSSQSVYHANWLSWFQQKPGQPPKLLIYWASTLAYGVPSRFSGSGSGTDFTLTISSLQPEDAATYYCAGGYGGGRYAFGQGTKVEIKRTVAAPSVFIFPPSDEQLKSGTASVVCLLNNFYPREAKVQWKVDNALQSGNSQESVTEQDSKDSTYSLSSTLTLSKADYEKHKVYACEVTHQGLSSPVTKSFNRGEC
**Q.** For B3, which celluar uptake [1] is on record?
**A.** 2.3 relative to SG1 (=1.00)

**Q.** What about the “biacore IC binding” value [2] of the same binder?
**A.** 1.37 relative to SG1 (=1.00)

B4: M103205H795-P1549m/M103202L889-SK1 (antibody, human IgG1, kappa)
heavy: QVTLKESGPVLVKPTETLTLTCTVSGIDLSHDDISWVRQAPGKGLEWVGIISYAGSTYYASWAKGRLTISKDTSKNQVVLTMTNMDPVDTATYYCARGVPAYSHGGDLWGQGTLVTVSSASTKGPSVFPLAPSSKSTSGGTAALGCLVKDYFPEPVTVSWNSGALTSGVHTFPAVLQSSGLYSLSSVVTVPSSSLGTQTYICNVNHKPSNTKVDKKVEPKSCDKTHTCPPCPAPELLGGPSVFLFPPKPKDTLMISRTPEVTCVVVDVSHEDPEVKFNWYVDGVEVHNAKTKPREEQYNSTYRVVSVLTVLHRDWLNGKEYKCKVSNKALPAPIEKTISKAKGQPREPQVYTLPPSREEMTKNQVSLTCLVKGFYPSDIAVEWESNRQPENNYKTTPPVLDSDRSFFLYSKLTVDKSRWQQGNVFSCSVMHEALHNHYTQKSLSLSP
light: DIVMTQSPATLSLSPGERATLSCTSSQSVYHANWLSWFQQKPGQPPKLLIYWASTLAYGVPSRFSGSGSGTDFTLTISSLQPEDAATYYCAGGYGGGRYAFGQGTKVEIKRTVAAPSVFIFPPSDEQLKSGTASVVCLLNNFYPREAKVQWKVDNALQSGNSQESVTEQDSKDSTYSLSSTLTLSKADYEKHKVYACEVTHQGLSSPVTKSFNRGEC
**Q.** For B4, which celluar uptake [1] is on record?
**A.** 2.03 relative to SG1 (=1.00)

**Q.** And the “biacore IC binding” value [2]?
**A.** 1.22 relative to SG1 (=1.00)

B5: M103205H795-P1550m/M103202L889-SK1 (antibody, human IgG1, kappa)
heavy: QVTLKESGPVLVKPTETLTLTCTVSGIDLSHDDISWVRQAPGKGLEWVGIISYAGSTYYASWAKGRLTISKDTSKNQVVLTMTNMDPVDTATYYCARGVPAYSHGGDLWGQGTLVTVSSASTKGPSVFPLAPSSKSTSGGTAALGCLVKDYFPEPVTVSWNSGALTSGVHTFPAVLQSSGLYSLSSVVTVPSSSLGTQTYICNVNHKPSNTKVDKKVEPKSCDKTHTCPPCPAPELLGGPSVFLFPPKPKDTLMISRTPEVTCVVVDVSHEDPEVKFNWYVDGVEVHNAKTKPREEQYNSTYRVVSVLTVLHRDWLNGKEYKCKVSNKALPAPIEKTISKAKGQPREPQVYTLPPSREEMTKNQVSLTCLVKGFYPSDIAVEWESNGQPRNNYKTTPPVLDSRGSFFLYSKLTVDKSRWQQGNVFSCSVMHEALHNHYTQKSLSLSP
light: DIVMTQSPATLSLSPGERATLSCTSSQSVYHANWLSWFQQKPGQPPKLLIYWASTLAYGVPSRFSGSGSGTDFTLTISSLQPEDAATYYCAGGYGGGRYAFGQGTKVEIKRTVAAPSVFIFPPSDEQLKSGTASVVCLLNNFYPREAKVQWKVDNALQSGNSQESVTEQDSKDSTYSLSSTLTLSKADYEKHKVYACEVTHQGLSSPVTKSFNRGEC
**Q.** Which celluar uptake [1] does the source give for B5 here?
**A.** 6.43 relative to SG1 (=1.00)

**Q.** What about the “biacore IC binding” value [2] of the same binder?
**A.** 1.63 relative to SG1 (=1.00)

B6: M103205H795-P1551m/M103202L889-SK1 (antibody, human IgG1, kappa)
heavy: QVTLKESGPVLVKPTETLTLTCTVSGIDLSHDDISWVRQAPGKGLEWVGIISYAGSTYYASWAKGRLTISKDTSKNQVVLTMTNMDPVDTATYYCARGVPAYSHGGDLWGQGTLVTVSSASTKGPSVFPLAPSSKSTSGGTAALGCLVKDYFPEPVTVSWNSGALTSGVHTFPAVLQSSGLYSLSSVVTVPSSSLGTQTYICNVNHKPSNTKVDKKVEPKSCDKTHTCPPCPAPELLGGPSVFLFPPKPKDTLMISRTPEVTCVVVDVSHEDPEVKFNWYVDGVEVHNAKTKPREEQYNSTYRVVSVLTVLHRDWLNGKEYKCKVSNKALPAPIEKTISKAKGQPREPQVYTLPPSREEMTKNQVSLTCLVKGFYPSDIAVEWESNGQPRNNYKTTPPVLDSDRSFFLYSKLTVDKSRWQQGNVFSCSVMHEALHNHYTQKSLSLSP
light: DIVMTQSPATLSLSPGERATLSCTSSQSVYHANWLSWFQQKPGQPPKLLIYWASTLAYGVPSRFSGSGSGTDFTLTISSLQPEDAATYYCAGGYGGGRYAFGQGTKVEIKRTVAAPSVFIFPPSDEQLKSGTASVVCLLNNFYPREAKVQWKVDNALQSGNSQESVTEQDSKDSTYSLSSTLTLSKADYEKHKVYACEVTHQGLSSPVTKSFNRGEC
**Q.** What does the source list for B6?
**A.** celluar uptake [1]: 2.91 relative to SG1 (=1.00); biacore IC binding [2]: 1.33 relative to SG1 (=1.00)
